From the supplement of paper PMC9732359
± gives the uncertainty stated by the source.

Assay: protein stability index of a GFP-peptide fusion (yeast GPS) (PSI 1-4); higher = more stable; sorted into four equal gates, so the index is relative within each strain
Method in brief: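 For each peptide, the protein stability index sums the read frequency in every gate after multiplying it by the gate number. Read frequencies came from plasmids that were PCR-amplified from each gate and Illumina-sequenced, with reads assigned to strains by barcodes. The gates were four equal bins of GFP/Cherry fluorescence ratio applied to mid-log yeast in leucine-free medium carrying a pooled library of tiled 17-residue yeast protein peptides fused downstream of GFP on a Cherry-expressing plasmid.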

Sequence	protein stability index (doa10∆)	protein stability index (pdr5∆)	protein stability index (san1∆)	protein stability index (ubr1∆)
RLILLLNHRNKNQHRAA [RMP1]	1.44 ± 0.09	1.51 ± 0.079	1.34 ± 0.12	2.13 ± 0.089
PDGSFEDWSVEELIVDL [RPO26]	3.42 ± 0.17	2.06 ± 0.16	3 ± 0.13	2.84 ± 0.081
MLPGSSNGGGKVKPIRG [RPO31]	3 ± 0.073	3.36 ± 0.13	3.15 ± 0.076	3.07 ± 0.068
ILNLYSSAHLIRINDEP [YML103C/NUP188]	1.99 ± 0.096	2.18 ± 0.18	1.8 ± 0.26	1.77 ± 0.092
GDNTSDVDMEDRNLTEF [RRI1]	–	3.08 ± 0.13	3.27 ± 0.18	3.19 ± 0.058
IRNEGSDAEEEEGEYKN [ISW2]	–	–	–	3.44 ± 0.11
SEIKQQINKAQILENYN [YJL039C/NUP192]	2.94 ± 0.089	3.17 ± 0.069	2.73 ± 0.091	3.11 ± 0.057
FLPRKRAASIRARVKAF [RPL3]	1.16 ± 0.045	1.18 ± 0.064	1.15 ± 0.11	1.17 ± 0.051
RKMTTDDDINWQELARS [RPT5]	1.79 ± 0.055	2.93 ± 0.072	3.16 ± 0.097	3 ± 0.07
KWSKKSMKDRAQHAVIL [RPS25A]	2.37 ± 0.058	2.42 ± 0.095	2.73 ± 0.091	2.63 ± 0.054
SAGKGISSSAIPYSRNA [RPS13]	2.61 ± 0.037	2.58 ± 0.041	2.36 ± 0.048	2.21 ± 0.029
KGDLRRGFIKSEGSGSS [RPC53]	3.43 ± 0.14	3.37 ± 0.1	3.31 ± 0.07	3.48 ± 0.15
GILDEIMFNHARIIRSE [RGR1]	2.75 ± 0.061	2.98 ± 0.071	3.08 ± 0.069	3.07 ± 0.032
SVFDATSDPVMHKQLAY [RPN1]	2.28 ± 0.11	2.17 ± 0.077	1.79 ± 0.14	1.96 ± 0.082
PIKNRKNDTHYLLPDDF [BRN1]	2.98 ± 0.079	2.93 ± 0.094	2.85 ± 0.061	2.95 ± 0.058
VDREAMLKPNIIFQQLL [YCG1]	2.98 ± 0.24	2.78 ± 0.19	–	–
GWWGHMGGPKQKGITSY [QCR8]	3.16 ± 0.072	2.13 ± 0.08	1.41 ± 0.14	1.67 ± 0.075
IQHVGMINGRKLIKFET [FAS1]	2.82 ± 0.072	2.85 ± 0.074	3.05 ± 0.085	2.81 ± 0.041
TYNEDIPVEILVRRLSD [PRE9]	3.06 ± 0.079	2.84 ± 0.077	3.14 ± 0.064	2.85 ± 0.059
EYNRLKVQDAIEEEIFD [LIN1]	2.83 ± 0.057	2.31 ± 0.05	2.85 ± 0.057	2.93 ± 0.055
WLKNKFAEENITHKLTK [BRR2]	3.13 ± 0.085	3.03 ± 0.06	2.85 ± 0.047	3.01 ± 0.078
LPSGVLSRGDDEVTIRR [SMC3]	3.44 ± 0.083	3.25 ± 0.12	3.2 ± 0.069	3.27 ± 0.068
VIKRLEASTVPWGDYLQ [BRR2]	1.63 ± 0.15	1.24 ± 0.11	1.54 ± 0.11	1.35 ± 0.11
PAFSNSNGFNNVTFGSK [YMR153W/NUP53]	2.68 ± 0.054	2.96 ± 0.067	3.1 ± 0.037	3.13 ± 0.048
TTSLNPIQSKVFHAAFE [BRR2]	2.65 ± 0.062	2.56 ± 0.071	2.08 ± 0.11	2.85 ± 0.052

Sequence	protein stability index (doa10∆)	protein stability index (pdr5∆)	protein stability index (san1∆)	protein stability index (ubr1∆)
SVKLDLQDDEDHKFPIR [BRN1]	2.99 ± 0.18	2.88 ± 0.098	2.76 ± 0.14	2.22 ± 0.17
YEGMKLGNHAITIDSVV [YMR129W/POM152]	2.27 ± 0.094	1.36 ± 0.12	1.64 ± 0.16	2 ± 0.15
ENALIELKNELAKTKEN [YIL149C/MLP2]	2.82 ± 0.087	2.97 ± 0.07	2.98 ± 0.068	2.93 ± 0.08
MEMSEKIQFILEQMELS [RPN5]	–	2.65 ± 0.24	2.35 ± 0.29	2.66 ± 0.19
VSPTVGKLFSDIKVLKR [YIL149C/MLP2]	2.96 ± 0.08	3.29 ± 0.077	3.11 ± 0.06	3.17 ± 0.039
SRKGIAFGLGAIMSKSS [ECM29]	1.61 ± 0.058	1.86 ± 0.054	1.64 ± 0.08	1.74 ± 0.036
EGDIQVLKSYGAAPYAA [RPT1]	2.84 ± 0.095	2.83 ± 0.12	3.05 ± 0.082	2.82 ± 0.063
RPTEKPVGRELDPISLI [RPN13]	2.95 ± 0.11	3.4 ± 0.12	3.33 ± 0.08	3.19 ± 0.094
VVDRESDIPKTTVQVAE [PRE4]	2.6 ± 0.11	2.99 ± 0.1	2.8 ± 0.13	3.06 ± 0.076
TAGAAANALGGLGVNRR [SSN3]	3.51 ± 0.11	3.04 ± 0.11	3.38 ± 0.089	3.24 ± 0.1
AKKSTTISKESTPDQRK [ESC2]	2.59 ± 0.1	2.78 ± 0.12	2.94 ± 0.13	2.92 ± 0.054
SSFEENNDLESVSMLLQ [RRI2]	2.98 ± 0.071	3.23 ± 0.063	3 ± 0.048	3.13 ± 0.039
AERDSQGGFYKQQDAEE [UBP6]	3.35 ± 0.08	3.38 ± 0.089	3.07 ± 0.077	3.28 ± 0.055
SFSVCKIRCFRYISTLT [IRR1]	1.61 ± 0.057	1.39 ± 0.055	1.49 ± 0.11	1.31 ± 0.052
AGLGKTNELWARLAILK [YGR119C/NUP57]	2.38 ± 0.086	1.67 ± 0.091	2.02 ± 0.2	3.56 ± 0.14
LKQEIDRGLSIKLNGST [SNU114]	2.88 ± 0.092	3.17 ± 0.11	3 ± 0.099	2.88 ± 0.09
EIEQLDQYIQKQVQISH [YGL172W/NUP49]	2.91 ± 0.056	3.11 ± 0.05	2.75 ± 0.073	2.87 ± 0.059
LGKAQNWAKFTATASLG [RPN2]	2.55 ± 0.059	2.56 ± 0.059	2.18 ± 0.069	2.28 ± 0.065
AEFILKNRSTIFWGIRL [BRR2]	2.73 ± 0.056	1.93 ± 0.063	1.52 ± 0.089	1.77 ± 0.048
LKRLAWQYIVIDEAHRI [ISW2]	1.77 ± 0.077	1.78 ± 0.1	2.45 ± 0.077	1.13 ± 0.09
NVVEVMDMNEIEDKENS [RPT5]	3.02 ± 0.087	2.58 ± 0.066	2.26 ± 0.067	2.71 ± 0.059
RDGGLRLGEMERDCVIA [RET1]	3.15 ± 0.18	3.3 ± 0.12	2.54 ± 0.13	3.34 ± 0.095
VRYEEKRELKQLLEKAP [BRR2]	1.86 ± 0.093	2.35 ± 0.084	1.89 ± 0.18	2.4 ± 0.12
KLANFFSKKGNEPLSEI [YAR002W/NUP60]	2.82 ± 0.095	3.17 ± 0.076	3.14 ± 0.067	3.13 ± 0.099
